System: activated integrin αvβ3
Experiment: Flow cytometry, scFv binding to MDA-MB 435 variants and patient metastatic breast cancer cells
Design: species or system human
Description: FIGS. 1A, 1B, 1C. Patient derived scFvs Bc-12 and Bc-15 recognize tumor cell integrin αvβ3 in a cation and activation dependent manner. Flow cytometric analyses in TBS with or without 1 mM Ca^2+, 1 mM Mg^2+, or 0.2 mM Mn^2+ as indicated. Binding of soluble scFv detected after incubation with anti-Flag M2 murine mAb followed by FITC-anti mouse F(ab′)2. (A) scFv binding to human melanoma cells (M21: αvβ3 plus other αv integrins) (M21-LIIb: αIIbβ3, no αv integrins) or lung adenocarcinoma cells (UCLA-P3: αv integrins, no β3 integrin). (B) scFv binding to M21 melanoma cells. (C) scFv binding to variants of MDA-MB 435 human breast cancer cells that lack (β^3−) or express αvβ3 either in a non-activated (β3WT, ParentCo) or activated form (β3D723R, Bone, Lung, and BMS metastatic cancer cells isolated from breast cancer patient blood).
FIGS. 2A, 2B, 2C, 2D. Translation of scFv DNA sequence analyses. (A) Consensus amino acid sequence (SEQ ID NO: 9) of Bc-12 (SEQ ID NO: 7) and Bc-15 (SEQ ID NO: 8) (specific for activated αvβ3) compared to Bc-20 (specific for αv) (SEQ ID NO: 10). (B) scFv binding to BMS human breast cancer cells by flow cytometry, indicating loss of Bc-12 and Bc-15 binding when CDR-H3 RGD is mutated to RGE (Mut-12 and Mut-15). […] (C) cDNA sequences for scFv Bc-12 (SEQ ID NO: 1) and scFv Bc-15 (SEQ ID NO: 3). The cDNA encoding scFv Bc-12 has an ATCC accession number PTA-6303, date of deposit: Nov. 12, 2004. The cDNA encoding scFv Bc-15 has an ATCC accession number PTA-6304, date of deposit: Nov. 12, 2004. (D) cDNA sequences for scFv Mut-12 (SEQ ID NO: 5) and scFv Mut-15 (SEQ ID NO: 6). scFv Mut-12 is the RGE containing mutant version of scFv Bc-12. scFv Mut-15 is the RGE containing mutant version of scFv Bc-15.
Flow cytometry. scFv binding to human tumor cells was analyzed by flow cytometry, initially with cloned scFv phage and then with purified scFv protein. Per sample, 2×10^5 tumor cells were blocked with goat serum and incubated either with scFv phage (2-5×10^10) (1 h at RT) followed by mouse anti-M13 mAb (Serotec) (30 min on ice) and goat FITC-anti mouse (Pierce) (30 min on ice), or with purified scFv (1.25 to 40 μg/ml, routinely 10 to 15 μg/ml) (45 min on ice), followed by mouse anti-FLAG mAb M2 (Sigma) (30 min on ice) and goat FITC-anti mouse. Binding/washing buffer was TBS with or without divalent cations (1 mM Ca^2+, 1 mM Mg^2+, 0.2 mM Mn^2+). Alternatively, tumor cells were washed in 10 ml of plasma (prepared freshly from human blood anticoagulated with 50 nM D-Phe-D-Pro-D-arginyl chloromethyl ketone, PPACK, Felding-Habermann et al., J. Biol. Chem. 271: 5892-5900, 1996), resuspended in plasma and then incubated sequentially, without washing, with purified scFv (45 min on ice), followed by anti-FLAG M2 (30 min on ice) and FITC-anti mouse (30 min on ice). All samples were counter stained with propidium iodide (PI) and analyzed on a Becton-Dickinson FACScan, with live gate set to exclude PI positive cells.
To test this further, the effects of cation combinations on Bc-12 and Bc-15 binding were examined. […] Smith, Methods Cell Biol. 69: 247-259, 2002; Hughes et al., J. Biol. Chem. 271: 6571-6574, 1996. To confirm that scFv Bc-12 and Bc-15 selectively recognize αvβ3 in its activated form, binding of these antibodies to in vitro generated and in vivo selected variants of the MDA-MB 435 breast cancer cell model was tested. […] In contrast, Bc-12 and Bc-15 were able to bind an MDA-MB 435 variant expressing constitutively activated mutant αvβ3D723R, without exogenous stimulation with Mn^2+. […] Importantly, scFvs Bc-12 and Bc-15 recognized in vivo selected MDA-MB 435 variants from bone and lung metastases, as well as metastatic cells isolated from breast cancer patient blood samples (FIG. 1C). These cells express αvβ3 in a constitutively activated form. Felding-Habermann et al., Proc. Natl. Acad. Sci. U.S.A 98: 1853-1858, 2001; Rolli et al., Proc. Natl. Acad. Sci. U.S.A 100: 9482-9487, 2003.

B1: Bc-12: patient derived human scFv antibody against activated αvβ3 with RGD motif in CDR-H3; cDNA ATCC PTA-6303 (protein)
scFv: MAQVQLVQSGAEVKKPGASVKVSCKASGYTFSNYGITWVRQAPGQGLEWMGWINNGNTHYAQKFQGRVTMTTDTSTSTAYMELRSLRSDDTAVYYCARDPRGDDEPYWGQGTLVTVSSGGGGSGGGGSGGGGSEIVLTQSPLSLPVTLGQPASISCRSSQNLVYSDGNTYLSWFQQRPGQSPRRLIYKVSNRDSGVPDRFSGSGSGTDFTLKISRVEAEDIGVYYCMQGTHWPPRTFGQGTKVEIKRGLGGLVDYKDDDDK
B1 was tested. Which “binding to MDA-MB 435 variant expressing αvβ3D723R with Mn2+” value (Mn^2+ added) did it give?
Its value is “further enhanced”.

And the “binding to MDA-MB 435 variant expressing αvβ3D723R” value (constitutively activated mutant, without Mn^2+)?
The value was “able to bind”.

What about the “binding to β3-negative MDA-MB 435 cells” value (β3− variant) of the same molecule?
The value was “failed to bind”.

Reference: patent US7271245B2, “Methods and compositions for inhibition of metastasis” (The Scripps Research Institute, priority 2004, dated 2007)
